Assay results taken from patent US20080058636A1, “METHODS OF MYOCARDIAL IMAGING” (Epix Pharmaceuticals, Inc., priority 2005, published 2008).

target: rat collagen (acid soluble, type I, rat tail, Upstate 08-115) (rat) (UniProt P02454); experiment: dried collagen assay, 5 uM each
Sequence (P02454 152-1207, chain 1 of 2): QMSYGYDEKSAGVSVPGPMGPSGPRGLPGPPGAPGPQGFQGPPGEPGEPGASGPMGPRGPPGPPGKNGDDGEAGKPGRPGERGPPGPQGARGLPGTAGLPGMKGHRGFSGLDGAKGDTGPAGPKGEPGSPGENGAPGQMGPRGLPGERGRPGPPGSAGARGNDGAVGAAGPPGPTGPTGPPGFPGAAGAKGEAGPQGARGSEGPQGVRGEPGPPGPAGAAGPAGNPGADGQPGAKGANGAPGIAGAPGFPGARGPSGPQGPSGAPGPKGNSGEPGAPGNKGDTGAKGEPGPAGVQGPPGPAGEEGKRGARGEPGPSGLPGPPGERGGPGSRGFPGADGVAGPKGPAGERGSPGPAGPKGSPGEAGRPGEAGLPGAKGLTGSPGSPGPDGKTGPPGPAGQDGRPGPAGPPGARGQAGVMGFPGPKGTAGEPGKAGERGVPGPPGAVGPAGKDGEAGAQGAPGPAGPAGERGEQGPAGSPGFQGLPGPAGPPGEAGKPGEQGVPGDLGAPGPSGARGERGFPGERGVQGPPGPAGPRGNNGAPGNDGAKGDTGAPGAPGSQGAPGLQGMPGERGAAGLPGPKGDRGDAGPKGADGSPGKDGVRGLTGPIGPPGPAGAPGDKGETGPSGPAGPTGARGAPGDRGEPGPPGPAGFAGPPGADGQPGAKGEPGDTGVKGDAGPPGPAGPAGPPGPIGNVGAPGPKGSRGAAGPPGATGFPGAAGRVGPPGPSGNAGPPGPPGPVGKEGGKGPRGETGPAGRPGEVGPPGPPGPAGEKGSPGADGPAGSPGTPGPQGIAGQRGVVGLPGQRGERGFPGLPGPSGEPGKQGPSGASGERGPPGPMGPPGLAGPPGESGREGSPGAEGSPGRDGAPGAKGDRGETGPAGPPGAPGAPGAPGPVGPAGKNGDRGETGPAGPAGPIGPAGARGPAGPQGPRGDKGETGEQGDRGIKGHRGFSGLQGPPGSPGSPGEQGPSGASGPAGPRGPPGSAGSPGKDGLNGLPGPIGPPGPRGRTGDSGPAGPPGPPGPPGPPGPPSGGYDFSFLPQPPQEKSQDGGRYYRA
Sequence (P02466 86-1125, chain 2 of 2, further chain): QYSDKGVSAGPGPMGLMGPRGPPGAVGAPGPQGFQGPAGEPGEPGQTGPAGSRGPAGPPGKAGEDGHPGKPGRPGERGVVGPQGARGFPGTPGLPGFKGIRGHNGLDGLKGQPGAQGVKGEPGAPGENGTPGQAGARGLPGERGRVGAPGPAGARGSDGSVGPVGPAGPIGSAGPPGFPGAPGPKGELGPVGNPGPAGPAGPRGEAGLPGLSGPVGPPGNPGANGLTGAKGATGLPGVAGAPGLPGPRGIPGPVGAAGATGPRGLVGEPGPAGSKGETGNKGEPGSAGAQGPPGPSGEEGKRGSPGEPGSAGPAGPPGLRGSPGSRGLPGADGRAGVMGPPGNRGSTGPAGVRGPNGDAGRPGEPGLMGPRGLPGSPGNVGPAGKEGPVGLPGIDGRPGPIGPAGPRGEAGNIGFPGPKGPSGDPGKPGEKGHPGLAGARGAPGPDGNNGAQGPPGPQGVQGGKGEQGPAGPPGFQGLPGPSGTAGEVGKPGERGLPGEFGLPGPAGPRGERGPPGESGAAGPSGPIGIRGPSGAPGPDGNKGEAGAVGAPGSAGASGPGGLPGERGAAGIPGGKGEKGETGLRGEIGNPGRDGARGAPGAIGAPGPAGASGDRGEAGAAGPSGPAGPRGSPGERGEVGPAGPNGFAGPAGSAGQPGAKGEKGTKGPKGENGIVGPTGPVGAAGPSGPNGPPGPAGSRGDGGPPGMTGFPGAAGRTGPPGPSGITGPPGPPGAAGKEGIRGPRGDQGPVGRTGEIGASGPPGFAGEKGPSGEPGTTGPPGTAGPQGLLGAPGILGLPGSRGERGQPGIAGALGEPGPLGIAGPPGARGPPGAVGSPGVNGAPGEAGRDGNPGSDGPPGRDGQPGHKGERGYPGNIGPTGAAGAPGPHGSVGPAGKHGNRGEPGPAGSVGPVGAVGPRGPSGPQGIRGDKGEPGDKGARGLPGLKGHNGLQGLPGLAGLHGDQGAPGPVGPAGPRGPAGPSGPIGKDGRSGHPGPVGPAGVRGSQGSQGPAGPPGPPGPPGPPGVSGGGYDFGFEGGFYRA

In order of falling Rat binding:
1. GKWHCYTYFPYHYCVYG [Compound ID 963]  91%
2. GKWHCYTYFPYHYCLYG [Compound ID 964]  86%
3. GQWHCTTRFPHHYCFYG [Compound ID 931]  83%
4. GKWHCYTYFPHHYCVYY [Compound ID 945]  82%
5. GKWHCTTYFPHHYCLYY [Compound ID 949]  79%
6. GKWHCYTYFPHHYCVYGK [Compound ID 974]  69%
7. GKWHCTTYFPYHYCLYG [Compound ID 946]  68%
8. GKWHCTTYFPHHYCVYG [Compound ID 942]  67%
9. GKWHCYTYFPHHYCVYYK [Compound ID 975]  64%
10. GKWHCTTYFPHYYCLYG [Compound ID 947]  57%
11. GKWHCTTYFPHHYCLYYK [Compound ID 976]  57%
12. GQWHCKTRFPHHYCLYG [Compound ID 957]  39%
13. KKGQWHCTTYFPHHYCLYG [Compound ID 960]  34%
14. GQWHCTTRFPKHYCLYG [Compound ID 958]  33%
15. GKWHCTTYFPHWYCLYG [Compound ID 948]  17%
16. GQWKCTTRFPHHYCLYG [Compound ID 956]  15%
17. AWHCTTRFPAHYCLYG [Compound ID 937]  14%
18. GQWHCTTRFAHHYCLYG [Compound ID 938]  13%
19. GKWHCTTYFPHHVCLYG [Compound ID 965]  11%
20. GKWHCTTYFPTHYCLYG [Compound ID 962]  10%
21. GQWHCTKRFPHHYCLYG [Compound ID 940]  8%
22. GKWHCTTLFPHHVCLYG [Compound ID 966]  8%
23. GQWHCTDRFPHHYCLYG [Compound ID 936]  5%
24. GKWHCTTYFPHHFCLYG [Compound ID 972]  0%

target: human collagen type I (acid soluble, extracted from placenta, Sigma C7774) (human) (UniProt P02452); experiment: dried collagen assay, 5 uM each
Sequence (P02452 162-1218 limits assumed, chain 1 of 2): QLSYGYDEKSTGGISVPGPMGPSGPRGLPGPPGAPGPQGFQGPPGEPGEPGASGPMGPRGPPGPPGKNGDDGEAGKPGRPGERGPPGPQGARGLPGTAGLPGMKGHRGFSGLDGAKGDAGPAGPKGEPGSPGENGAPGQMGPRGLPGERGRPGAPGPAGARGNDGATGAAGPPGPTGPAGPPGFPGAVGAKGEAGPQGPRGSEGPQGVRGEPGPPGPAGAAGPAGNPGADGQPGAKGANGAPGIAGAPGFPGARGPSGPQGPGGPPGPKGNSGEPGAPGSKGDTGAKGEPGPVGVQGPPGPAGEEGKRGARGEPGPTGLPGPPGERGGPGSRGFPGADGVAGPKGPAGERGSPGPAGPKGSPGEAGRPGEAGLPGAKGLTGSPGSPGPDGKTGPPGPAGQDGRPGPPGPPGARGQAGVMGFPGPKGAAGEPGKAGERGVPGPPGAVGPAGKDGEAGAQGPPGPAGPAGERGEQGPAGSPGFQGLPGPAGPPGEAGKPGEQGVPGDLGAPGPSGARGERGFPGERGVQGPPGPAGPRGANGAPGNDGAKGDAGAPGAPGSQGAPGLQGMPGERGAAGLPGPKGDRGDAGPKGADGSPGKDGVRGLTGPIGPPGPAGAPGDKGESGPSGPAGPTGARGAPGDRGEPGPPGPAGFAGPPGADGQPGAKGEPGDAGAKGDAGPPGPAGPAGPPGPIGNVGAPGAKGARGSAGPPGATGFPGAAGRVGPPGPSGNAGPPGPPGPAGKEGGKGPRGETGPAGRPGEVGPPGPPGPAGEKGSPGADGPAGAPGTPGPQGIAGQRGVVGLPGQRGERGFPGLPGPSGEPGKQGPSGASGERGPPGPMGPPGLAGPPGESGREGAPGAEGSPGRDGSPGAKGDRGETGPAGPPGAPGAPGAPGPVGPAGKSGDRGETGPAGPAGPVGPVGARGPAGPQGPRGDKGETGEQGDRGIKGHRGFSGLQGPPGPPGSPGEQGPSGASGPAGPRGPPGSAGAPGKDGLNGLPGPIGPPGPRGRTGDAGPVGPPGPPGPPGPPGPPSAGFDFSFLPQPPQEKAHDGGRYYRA
Sequence (P08123 80-1119 limits assumed, chain 2 of 2, further chain): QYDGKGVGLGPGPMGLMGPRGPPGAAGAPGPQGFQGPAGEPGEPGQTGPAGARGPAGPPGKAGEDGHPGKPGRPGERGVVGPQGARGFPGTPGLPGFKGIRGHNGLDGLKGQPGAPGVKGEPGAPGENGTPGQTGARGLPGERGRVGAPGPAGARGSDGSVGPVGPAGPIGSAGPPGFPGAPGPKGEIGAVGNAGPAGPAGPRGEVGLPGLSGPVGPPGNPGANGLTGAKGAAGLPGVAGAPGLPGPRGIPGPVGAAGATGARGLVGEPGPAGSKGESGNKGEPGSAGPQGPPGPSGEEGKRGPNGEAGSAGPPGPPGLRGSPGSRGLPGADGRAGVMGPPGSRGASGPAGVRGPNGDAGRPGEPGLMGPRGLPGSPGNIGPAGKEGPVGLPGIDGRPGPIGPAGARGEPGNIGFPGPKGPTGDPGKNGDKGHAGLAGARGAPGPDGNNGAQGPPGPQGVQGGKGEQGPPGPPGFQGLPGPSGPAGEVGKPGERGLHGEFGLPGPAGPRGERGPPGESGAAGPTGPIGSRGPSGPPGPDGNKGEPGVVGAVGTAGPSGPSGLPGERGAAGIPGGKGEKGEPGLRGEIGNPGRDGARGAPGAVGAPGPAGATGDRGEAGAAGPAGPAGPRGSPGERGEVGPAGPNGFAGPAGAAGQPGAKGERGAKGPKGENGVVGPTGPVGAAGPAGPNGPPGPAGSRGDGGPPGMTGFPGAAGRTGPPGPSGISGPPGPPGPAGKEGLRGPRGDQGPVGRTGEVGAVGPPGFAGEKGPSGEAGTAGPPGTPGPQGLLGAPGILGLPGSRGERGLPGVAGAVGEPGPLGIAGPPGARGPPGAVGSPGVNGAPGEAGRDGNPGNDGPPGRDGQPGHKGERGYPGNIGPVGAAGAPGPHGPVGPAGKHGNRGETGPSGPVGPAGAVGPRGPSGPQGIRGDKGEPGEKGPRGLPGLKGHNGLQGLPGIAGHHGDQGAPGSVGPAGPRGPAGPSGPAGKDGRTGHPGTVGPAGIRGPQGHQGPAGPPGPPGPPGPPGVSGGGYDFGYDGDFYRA

In order of falling Human binding:
1. GKWHCYTYFPYHYCLYG [Compound ID 964]  88%
2. GKWHCYTYFPHHYCVYY [Compound ID 945]  83%
3. GKWHCYTYFPYHYCVYG [Compound ID 963]  82%
4. GKWHCTTYFPHHYCVYG [Compound ID 942]  78%
5. GKWHCTTYFPHHYCLYY [Compound ID 949]  72%
6. GKWHCTTYFPYHYCLYG [Compound ID 946]  71%
7. GKWHCYTYFPHHYCVYGK [Compound ID 974]  71%
8. GQWHCTTRFPHHYCFYG [Compound ID 931]  70%
9. GKWHCYTYFPHHYCVYYK [Compound ID 975]  70%
10. GKWHCTTYFPHYYCLYG [Compound ID 947]  64%
11. GKWHCTTYFPHHYCLYYK [Compound ID 976]  62%
12. GQWHCTTRFPKHYCLYG [Compound ID 958]  45%
13. GQWHCKTRFPHHYCLYG [Compound ID 957]  42%
14. GQWKCTTRFPHHYCLYG [Compound ID 956]  39%
15. KKGQWHCTTYFPHHYCLYG [Compound ID 960]  30%
16. GKWHCTTYFPHHVCLYG [Compound ID 965]  26%
17. GKWHCTTYFPHWYCLYG [Compound ID 948]  25%
18. GKWHCTTYFPTHYCLYG [Compound ID 962]  20%
19. GQWHCTTRFAHHYCLYG [Compound ID 938]  16%
20. GKWHCTTLFPHHVCLYG [Compound ID 966]  14%
21. AWHCTTRFPAHYCLYG [Compound ID 937]  11%
22. GQWHCTDRFPHHYCLYG [Compound ID 936]  9%
23. GQWHCTKRFPHHYCLYG [Compound ID 940]  9%
24. GKWHCTTYFPHHFCLYG [Compound ID 972]  3%
